In US20260297200 (published 2026) one finds Kd and EC50 data, which are given here for 19 molecules.

Changes are numbered by the printed parent chain.

The chains are these.
B1: MKU011-A7 Fab-His (antibody, V domains shown)
VH: QVQLVQSGGGVVQPGGSLRLSCAASGFTFSSYGMHWVRQAPGKGLEWVAFIRYDGSNKYYADSVKGRFTISRDNSKNTLYLQMNSLRAEDTAVYYCAKDGNSGYDSMDYWGQGTLVTVSS
VL: QPVLTQSPSASGTPGQRVTISCSGVSSNIGRNYVYWYQQFPGTAPKLLIYATHQRPSGVPDRFSGSKSGTSASLAISGLRSEDEANYYCAAWDDGVTGWVFGGGTKLTVL
B2: YU250-A02 Fab-His (antibody, V domains shown)
VH: B1 VH with V5Q, Q6E
VL: QSVLTQPPSVSGAPGQRVTISCSGGSSNVGRNGVNWFQHLPEKAPKLLIYYDAFLSSGVSDRFSGSKSGTSASLAIRGLQSEDEADYYCASWDDSLTGWVFGGGTKLTVL
B3: YU250-H10 Fab-His (antibody)
chain 1: B1 VH
chain 2: B2 VL with E82D, S91A, T97Y, G98S, K106N
B4: Fab-eIg 2+2 H10x3-43 EGFR arm (antibody)
chain 1: B1 VH
chain 2: B2 VL with E82D, S91A, T97Y, G98S, K106N
B5: Db3-43xH10-Ig EGFR arm (antibody)
chain 1: B1 VH
chain 2: B2 VL with E82D, S91A, T97Y, G98S, K106N
B6: eIg 1+1 H10x4D5 EGFR arm (antibody)
chain 1: not shown
chain 2: QSVLTQPPSVSGAPGQRVTISCSGGSSNVGRNGVNWFQHLPEKAPKLLIYYDAFLSSGVSDRFSGSKSGTSASLAIRGLQSDDEADYYCAAWDDSLYSWVFGGGTNLTVLGQPKAAPSVTLFPPSSEELQANKATLVCLISDFYPGAVTVAWKADSSPVKAGVETTTPSKQSNNKYAASSYLSLTPEQWKSHRSYSCQVTHEGSTVEKTVAPTECS
B7: Fab/scFv-Fc H10x3-43 EGFR arm (antibody)
chain 1: not shown
chain 2: B6 chain 2
B8: eIg 1+1 H10x5D5 EGFR arm (antibody)
chain 1: not shown
chain 2: B6 chain 2
B9: Db3-43x3-43/FabH10-Fckih EGFR arm (antibody)
chain 1: not shown
chain 2: B6 chain 2
B10: eIg 1+1 H10x3-43 EGFR arm (antibody)
chain 1: not shown
chain 2: B6 chain 2
B11: scDb-scFv YU250-H10xhuU3 EGFR arm (antibody)
chain 1: B1 VH
chain 2: B2 VL with E82D, S91A, T97Y, G98S, K106N
B12: scDb YU250-H10xhuU3 EGFR arm (antibody)
chain 1: B1 VH
chain 2: B2 VL with E82D, S91A, T97Y, G98S, K106N
B13: eIg YU250-H10xhuU3 EGFR arm (antibody)
chain 1: not shown
chain 2: B6 chain 2
B14: eIg MKU011-A7xhuU3 EGFR arm (antibody, V domains shown)
VH: B1 VH
VL: QPVLTQSPSASGTPGQRVTISCSGVSSNIGRNYVYWYQQFPGTAPKLLIYATHQRPSGVPDRFSGSKSGTSASLAISGLRSEDEANYYCAAWDDGVTGWVFGGGTKLTVLG
B15: Fab-eIg MKU011-A7xhuU3 EGFR arm (antibody, V domains shown)
VH: B1 VH
VL: B1 VL
B16: scDb-scFv YU250-H10xhuU3 CD3 arm (antibody, V domains shown)
VH: QVQLVQSGAEVKKPGSSVKVSCKASGGTFSGYTMNWVRQAPGQGLEWMGLINPYKGVSTYNGKFKDRVTITADKSTSTAYMELSSLRSEDTAVYYCARSGYYGDSDWYFDVWGQGTLVTVSS
VL: DIQMTQSPSSLSASVGDRVTITCRASQDIRNYLNWYQQKPGKAPKLLIYYTSRLHSGVPSRFSGSGSGTDFTFTISSLQPEDIATYYCQQGNTLPWTFGQGTKLEIKR
B17: scDb YU250-H10xhuU3 CD3 arm (antibody, V domains shown)
VH: B16 VH
VL: B16 VL
B18: eIg YU250-H10xhuU3 CD3 arm (antibody, V domains shown)
VH: B16 VH
VL: B16 VL
B19: Fab-eIg YU250-H10xhuU3 CD3 arm (antibody, V domains shown)
VH: B16 VH
VL: B16 VL

Chain of CD3 on Jurkat (P07766 23-207): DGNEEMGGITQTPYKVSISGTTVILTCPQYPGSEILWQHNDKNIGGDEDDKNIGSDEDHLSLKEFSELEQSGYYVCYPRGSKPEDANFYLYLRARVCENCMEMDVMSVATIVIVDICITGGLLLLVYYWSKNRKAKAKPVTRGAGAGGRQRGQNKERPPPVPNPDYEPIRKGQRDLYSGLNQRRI

One experiment concerns the target EGFR-His (human ECD) (human). Put plainly: BLI. Background: Biolayer interferometry detects binding as a change in optical thickness at a sensor tip.
As for B1, binding was put at a Kd of 55.8 nM.

As to B2, binding was put at a Kd of 12.9 nM. With B3, binding was put at a Kd of 4.17 nM.

For the next experiment, the target named is EGFR-moIgG2a-Fc (human). Put plainly: ELISA. On the technique in general: In an ELISA, binding on a coated surface is turned into a signal by an enzyme label.
On to B4, for which the EC50 (in general, the concentration at which the effect is half-maximal) was determined as 0.5 nM. With B5, the EC50 came to 0.9 nM. In turn, B6 showed an EC50 of 6.2 nM. Take B7: a half-maximal response (EC50) required 0.3 nM.

As to B8, the EC50 came out at 1.1 nM. Still for that read-out and setting: in the case of B9 it was 0.1 nM.

Take B10: it took 0.5 nM to reach a half-maximal effect (EC50).

A further experiment addresses T1, human EGFR on cells (human, UniProt P00533). Put plainly: FACS, FaDu.
Turning to B11, it took 0.74 nM to reach a half-maximal effect (EC50).

On to B12, for which the midpoint of the response, the EC50, lay at 1.68 nM. Molecule B13 yielded an EC50 of 2.17 nM.

In the next experiment the target is T1, human EGFR on cells. Put plainly: FACS, FaDu. This is another data set of the same source. On the technique in general: In flow cytometry, cells or beads pass a laser one at a time.
B14 had an EC50 of 3.28 nM. The molecule B15 displayed an EC50 of 0.4 nM.

For another experiment, the target named is T1, human EGFR on cells. Put plainly: FACS, SW620.
On to B14, for which a half-maximal effect (EC50) was put at 0.74 nM.

In the case of B15, the EC50 came to 0.03 nM. B13 came in with an EC50 of 0.21 nM.

The next experiment addresses CD3 on Jurkat (human, UniProt P07766). In words: FACS, Jurkat.
Consider B16, for which the EC50 was greater than 10 nM.

B17 showed a concentration giving a half-maximal response (EC50) of 7.56 nM.

With B18, the EC50 was greater than 10 nM.

B19 returned an EC50 greater than 10 nM.

Another experiment deals with T1, human EGFR on cells. In words: FACS, LIM1215.
Molecule B11 showed an EC50 of 0.31 nM. For B12, the EC50 was 1.02 nM. In turn, B13 displayed an EC50 of 0.85 nM.

A further experiment addresses T1, human EGFR on cells. In words: FACS, HCT-116.
For the molecule B14, a half-maximal effect (EC50) was put at 4.28 nM.

The molecule B15 gave an EC50 of 0.16 nM.

In turn, B13 had an EC50 of 0.46 nM.
